# Measured values taken from patent publication US20260193326A1 (published 2026).
# Where a chain is given by its changes, count along the chain named.
# B1: A4-047 (VHH)
# VHH: VQLQESGGGLVQPGGSLRLSCAASGSRFSINTMGWYRQAPGKQRELVATVTRGGSTNYAGSVKGRFTISRDNAKNTVYLQMNSLRPEDTAVYYCHVDEVRQSSWTTSNLWGQGTQVTVSS
# B2: A4-002 (VHH)
# VHH: B1 VHH with S26R, R27S, T49A, V96I, L109I
# B3: A4-003 (VHH)
# VHH: B1 VHH with A22V, S26R, R27S, T49A, V96I, L109I
# B4: A4-004 (VHH)
# VHH: B1 VHH with T49A, V96I, L109I
# B5: A4-005 (VHH)
# VHH: B1 VHH with P13A, S26R, R27H, T49A, S55G, V96I, L109I
# B6: A4-006 (VHH)
# VHH: B1 VHH with S26R, R27H, T49A, V96I, L109I
# B7: A4-007 (VHH)
# VHH: B1 VHH with P13A, S26R, R27H, T49A, V96I, L109I
# B8: A4-008 (VHH)
# VHH: B1 VHH with P13A, S26R, R27A, G41P, V77I, L109I
# B9: A4-009 (VHH)
# VHH: B1 VHH with V11A, L46F, T49A, S83T, L109I
# B10: A4-010 (VHH)
# VHH: B1 VHH with P13A, R27I, T32S, S55N, G60D, Q101E
# B11: A4-013 (VHH)
# VHH: B1 VHH with T32S, S55N, G60D, Q101E
# B12: A4-014 (VHH)
# VHH: B1 VHH with T32S, S55N, Q101E
# B13: A4-015 (VHH)
# VHH: B1 VHH with R27I, T32L, P40A, V50I, R52P, S55N
# B14: A4-016 (VHH)
# VHH: B1 VHH with R27I, T32L, V50I, R52P, S55N
# B15: A4-017 (VHH)
# VHH: B1 VHH with R27I, T32L, V50I, S55N
# B16: A4-018 (VHH)
# VHH: B1 VHH with P13A, L46F, S55N, G60E, Q101D, L109I
# B17: A4-019 (VHH)
# VHH: B1 VHH with P13A, R27T, V50I, G60D, L109I
# B18: A4-020 (VHH)
# VHH: B1 VHH with P13A, R27T, V50I, S55N, G60D
# B19: A4-022 (VHH)
# VHH: B1 VHH with R27G, G53D, G60D, S61F, V96L, Q101E
# B20: A4-023 (VHH)
# VHH: B1 VHH with R27A, T49S, R52P, G60D, V77I, V96L, Q101E
# B21: A4-025 (VHH)
# VHH: B1 VHH with R27N, S29R, G60D, A73P, N75D, Q101E
# B22: A4-026 (VHH)
# VHH: B1 VHH with R27N, S29R, T49P, G60D, Q101E
# B23: A4-027 (VHH)
# VHH: B1 VHH with R27N, T49A, V50L, G60D, Q101E
# B24: A4-028 (VHH)
# VHH: B1 VHH with R27N, S55D, G60D, V99I, Q101E
# B25: A4-029 (VHH)
# VHH: B1 VHH with R27N, A39R, P40A, G60D, V96I, V99I, Q101E
# B26: A4-030 (VHH)
# VHH: B1 VHH with R27S, S29T, T49A, V77I, V99I
# B27: A4-031 (VHH)
# VHH: B1 VHH with R27G, R52S, G53A, V99I
# Target: T1, AAV9
# T1 construct: also called adeno-associated virus serotype 9
# Assay: SPR, AAV on CM5 chip;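 further: surface plasmon resonance with AAV amine-coupled to the chip as ligand, nanobodies injected as analyte over a concentration series, rate constants and affinity fitted from binding curves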
# Description: (§1) AAV was amine-coupled to a CM5 sensor chip at a density of 500-800 response units (RU). Nanobodies were injected at seven concentrations (1-100 nM) with a flow rate of 45 μL/min, and chip regeneration was performed using glycine-HCl (pH 1.5). Binding curves at different nanobody concentrations were used to calculate kinetic parameters (Kₐ, Kd, KD) (Table 2 and FIG. 2).
Binder,Kd [nM],koff [s⁻¹],kon [M⁻¹ s⁻¹]
B1,29.1,0.00147,50500
B2,232,0.011,47500
B3,184,0.00152,8240
B4,4.51,0.00081,180000
B5,88.5,0.021,237000
B6,192,0.0244,127000
B7,6.43,0.00089,138000
B8,14.5,0.00012,8270
B9,100,0.0139,139000
B10,380,0.0329,86600
B11,480,0.0379,79100
B12,13.3,0.00085,64000
B13,3.39,0.00017,50100
B14,131,0.00047,3600
B15,0.724,4e-05,55300
B16,62.1,0.00745,120000
B17,451,0.00525,11700
B18,73.7,0.00169,23000
B19,28.5,0.0001,3510
B20,2.88,0.00056,195000
B21,0.737,0.00012,163000
B22,31,0.00253,81600
B23,208,0.00085,4090
B24,1.09,9e-05,82400
B25,14.6,0.00141,96900
B26,27.2,0.00025,9200
B27,2240,0.00824,3690

# Target: T2, AAV5
# T2 construct: also called adeno-associated virus serotype 5
# Assay: SPR, AAV on CM5 chip;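 further: surface plasmon resonance with AAV amine-coupled to the chip as ligand, nanobodies injected as analyte over a concentration series, rate constants and affinity fitted from binding curves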
# Description: as §1
Binder,Kd [nM],koff [s⁻¹],kon [M⁻¹ s⁻¹]
B1,7.79,0.00144,185000
B2,138,0.00063,4570
B3,8.24,0.00019,23100
B4,37.5,0.00678,181000
B5,1860,0.00193,
B6,1.78,0.00032,179000
B7,1260,0.0248,19700
B8,66,0.0174,264000
B9,141,0.00698,49700
B10,267,0.00038,1420
B11,7.24,0.00011,15200
B12,597,0.00529,8860
B13,2.76,0.00052,189000
B14,23.9,0.00158,66000
B15,542,0.00164,3030
B16,0.962,0.00014,146000
B17,48.9,0.00156,31900
B18,169,0.00094,5550
B19,9.61,0.00152,158000
B20,12.4,0.00126,102000
B21,85.5,0.00041,4800
B22,37.4,0.00625,167000
B23,236,0.00194,8220
B24,26.4,0.00162,61300
B25,92.8,0.00155,16700
B26,84.4,0.00028,3320
B27,41.9,0.00624,149000

# Target: T3, AAV8
# T3 construct: also called adeno-associated virus serotype 8
# Assay: SPR, AAV on CM5 chip;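 further: surface plasmon resonance with AAV amine-coupled to the chip as ligand, nanobodies injected as analyte over a concentration series, rate constants and affinity fitted from binding curves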
# Description: as §1
Binder,Kd [nM],koff [s⁻¹],kon [M⁻¹ s⁻¹]
B1,0.104,2e-05,193000
B2,57.7,0.00618,107000
B3,1.2,0.000277,232000
B4,1.71,0.000286,167000
B5,4.39,0.00197,449000
B6,5.87,0.00224,381000
B7,47.4,0.00367,77300
B8,523,0.00164,3140
B9,103,0.00219,21400
B10,169,0.00249,14700
B11,1220,0.00737,6060
B12,384,0.00109,2840
B13,9.74,0.0017,174000
B14,9.58,0.00146,152000
B15,140,0.0002,1430
B16,34.9,0.00392,112000
B17,6.84,0.00077,113000
B18,0.506,5.66e-05,112000
B19,1.19,6.2e-05,52100
B20,143,0.00125,8730
B21,2.09,0.00026,124000
B22,27.2,0.00184,67700
B23,105,0.00085,8100
B24,6.34,0.00084,133000
B25,0.486,4e-05,82300
B26,43.7,0.00034,7780
B27,182,0.00923,50700
